Results published in FireProtDB (doi:10.1016/s0022-2836(03)00043-3).

B1: Cyclin-dependent kinase inhibitor 2A, P42771 (parent)
chain: MEPAAGSSMEPSADWLATAAARGRVEEVRALLEAGALPNAPNSYGRRPIQVMMMGSARVAELLLLHGAEPNCADPATLTRPVHDAAREGFLDTLVVLHRAGARLDVRDAWGRLPVDLAEELGHRDVARYLRAAAGGTRGSNHARIDAAEGPSDIPD

Variants of: B1
Settings: Homo sapiens, pH 8.5, CD, Tris 10 mM, reversible: yes, structure 1A5E, whole UniProt chain shown; for ddG of mutation (higher = less stable) / denaturant m value / denaturant midpoint (higher = more stable) / unfolding free energy: 20 °C, Urea; for Tm / change of melting temperature, mutant - wild type (higher = more stable): Thermal

Row | Variant | ddG of mutation (higher = less stable) [kcal/mol] | denaturant m value [kcal/mol/M] | denaturant midpoint (higher = more stable) [M] | unfolding free energy [kcal/mol] | Tm [°C] | change of melting temperature, mutant - wild type (higher = more stable) [°C]
1 | L121R | -0.66 | 1.61 | 2.4 | 4 | 50.4 | 4.4
2 | W15D L37S L121R | -1.42 | 1.56 | 2.8 | 4.77 | – | –
3 | W15D | -0.17 | 1.74 | 2.1 | 3.52 | – | –
4 | L37S | -0.71 | 1.82 | 2.4 | 4.05 | 50.3 | 4.3
5 | R128E | – | – | – | – | 47.6 | 1.6
6 | V95K | – | – | – | – | 47 | 1
7 | T18R | – | – | – | – | 45 | -1
8 | A73E | – | – | – | – | 46.2 | 0.2
9 | R124D | – | – | – | – | 45.6 | -0.4
10 | L65K | – | – | – | – | 47.2 | 1.2
